Test results reported in the supplement of paper PMC9112550, “Optimization of the antimicrobial peptide Bac7 by deep mutational scanning” (BMC Biology, 2022).

Test system: Escherichia coli TOP10
Assay: shrunken log2 fold change of peptide-encoding DNA abundance (4.5 h post-induction vs induction); higher = less antimicrobial activity (less host growth inhibition)
Settings: time post-induction: 4.5 h; library: site-saturation at positions 5, 18, 19, 20
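Further: peptides expressed intracellularly from a pBAD plasmid library in pooled LB shake-flask culture, induced with 0.3% L-arabinose, DNA abundance read by NGS, three biological replicates, DESeq2 with apeglm shrinkage.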

Sequence	shrunken log2 fold change
RRIRKRPPRLPRPRPRPNWHPRP	-0.0566
RRIRERPPRLPRPRPRPTVPPRP	-0.237
RRIRYRPPRLPRPRPRPCSAPRP	-0.212
RRIRDRPPRLPRPRPRPPLKPRP	0.0742
RRIRDRPPRLPRPRPRPYYVPRP	0.0365
RRIRMRPPRLPRPRPRPRFHPRP	0.142
RRIRCRPPRLPRPRPRPLTRPRP	0.258
RRIRHRPPRLPRPRPRPFDYPRP	-0.0282
RRIRWRPPRLPRPRPRPWMHPRP	-0.0548
RRIRFRPPRLPRPRPRPNRNPRP	-0.836
RRIRIRPPRLPRPRPRPLRCPRP	-0.14
RRIRYRPPRLPRPRPRPQWPPRP	-0.533
RRIRIRPPRLPRPRPRPANNPRP	-0.449
RRIRWRPPRLPRPRPRPHMSPRP	0.033
RRIRYRPPRLPRPRPRPYFIPRP	-0.629
RRIRLRPPRLPRPRPRPISQPRP	-0.135
RRIRLRPPRLPRPRPRPNPEPRP	0.0435
RRIRDRPPRLPRPRPRPGDHPRP	0.00849
RRIRIRPPRLPRPRPRPKGEPRP	0.00835
RRIRIRPPRLPRPRPRPWKYPRP	-0.254
RRIRQRPPRLPRPRPRPRWPPRP	0.616
RRIRCRPPRLPRPRPRPYICPRP	-0.419
RRIRTRPPRLPRPRPRPMATPRP	0.0309
RRIRCRPPRLPRPRPRPYMCPRP	-0.233
RRIRFRPPRLPRPRPRPWNFPRP	-0.0389

Sequence	shrunken log2 fold change
RRIRWRPPRLPRPRPRPRLLPRP	0.178
RRIRHRPPRLPRPRPRPTTVPRP	-0.0474
RRIRERPPRLPRPRPRPTCAPRP	-0.162
RRIRFRPPRLPRPRPRPMMLPRP	-0.139
RRIRIRPPRLPRPRPRPMGTPRP	-0.0384
RRIRTRPPRLPRPRPRPVESPRP	0.141
RRIRLRPPRLPRPRPRPTQFPRP	0.192
RRIRMRPPRLPRPRPRPAVWPRP	1.08
RRIRARPPRLPRPRPRPRKFPRP	0.421
RRIRYRPPRLPRPRPRPAIAPRP	0.0565
RRIRQRPPRLPRPRPRPGCQPRP	-0.103
RRIRDRPPRLPRPRPRPYYGPRP	0.127
RRIRWRPPRLPRPRPRPMMNPRP	-0.238
RRIRNRPPRLPRPRPRPWMWPRP	-0.0133
RRIRLRPPRLPRPRPRPHCNPRP	-0.363
RRIRSRPPRLPRPRPRPVKLPRP	-0.104
RRIRMRPPRLPRPRPRPPVFPRP	0.704
RRIRTRPPRLPRPRPRPVVEPRP	0.0529
RRIRGRPPRLPRPRPRPHTFPRP	-0.0226
RRIRFRPPRLPRPRPRPGMAPRP	-0.058
RRIRSRPPRLPRPRPRPWCMPRP	-0.781
RRIRDRPPRLPRPRPRPWGMPRP	-0.165
RRIRKRPPRLPRPRPRPRPYPRP	0.182
RRIRPRPPRLPRPRPRPPSAPRP	1.05
RRIRCRPPRLPRPRPRPRHQPRP	0.18

Sequence	shrunken log2 fold change
RRIRLRPPRLPRPRPRPLMIPRP	-0.288
RRIRARPPRLPRPRPRPKNDPRP	0.222
RRIRDRPPRLPRPRPRPYWQPRP	-0.548
RRIRGRPPRLPRPRPRPMHKPRP	0.866
RRIRQRPPRLPRPRPRPSDTPRP	-0.0683
RRIRCRPPRLPRPRPRPTGFPRP	-0.135
RRIRSRPPRLPRPRPRPRPDPRP	0.218
RRIRDRPPRLPRPRPRPMMSPRP	-0.0107
RRIRLRPPRLPRPRPRPHCWPRP	0.109
RRIRERPPRLPRPRPRPNEYPRP	-0.726
RRIRWRPPRLPRPRPRPIFDPRP	0.273
RRIRKRPPRLPRPRPRPERVPRP	0.281
RRIRRRPPRLPRPRPRPWGAPRP	0.483
RRIRKRPPRLPRPRPRPDGTPRP	0.293
RRIRDRPPRLPRPRPRPELNPRP	1.04
RRIRERPPRLPRPRPRPWLKPRP	-0.24
RRIRCRPPRLPRPRPRPREWPRP	-0.0656
RRIRHRPPRLPRPRPRPTDEPRP	-0.123
RRIRTRPPRLPRPRPRPSNPPRP	-0.663
RRIRLRPPRLPRPRPRPFQRPRP	-0.0382
RRIRSRPPRLPRPRPRPCRIPRP	-0.263
RRIRQRPPRLPRPRPRPMWHPRP	-0.18
RRIRTRPPRLPRPRPRPFEFPRP	-0.508
RRIRKRPPRLPRPRPRPYTNPRP	-0.21
RRIRLRPPRLPRPRPRPFVDPRP	0.00121

Sequence	shrunken log2 fold change
RRIRARPPRLPRPRPRPAPYPRP	-0.0625
RRIRKRPPRLPRPRPRPMCAPRP	0.583
RRIRERPPRLPRPRPRPSTWPRP	-0.651
RRIRVRPPRLPRPRPRPAIQPRP	-0.0625
RRIRRRPPRLPRPRPRPFCDPRP	-0.0358
RRIRQRPPRLPRPRPRPQVIPRP	-0.0697
RRIRTRPPRLPRPRPRPGATPRP	0.572
RRIRMRPPRLPRPRPRPTMFPRP	0.137
RRIRNRPPRLPRPRPRPDSPPRP	-0.0758
RRIRWRPPRLPRPRPRPYSMPRP	-0.314
RRIRNRPPRLPRPRPRPPKPPRP	0.145
RRIRQRPPRLPRPRPRPCYNPRP	-0.0459
RRIRRRPPRLPRPRPRPHAMPRP	0.191
RRIRARPPRLPRPRPRPYFYPRP	-0.619
RRIRMRPPRLPRPRPRPSHRPRP	0.254
RRIRPRPPRLPRPRPRPAVLPRP	0.163
RRIRIRPPRLPRPRPRPDGWPRP	-0.279
RRIRDRPPRLPRPRPRPNCWPRP	-0.113
RRIRPRPPRLPRPRPRPDHEPRP	0.0217
RRIRSRPPRLPRPRPRPNPQPRP	0.126
RRIRWRPPRLPRPRPRPCYVPRP	-0.127
RRIRLRPPRLPRPRPRPVKAPRP	-0.0553
RRIRSRPPRLPRPRPRPYIGPRP	-0.121
RRIRSRPPRLPRPRPRPMIWPRP	0.027
RRIRNRPPRLPRPRPRPDIMPRP	-0.039

Sequence	shrunken log2 fold change
RRIRRRPPRLPRPRPRPFICPRP	-0.0336
RRIRPRPPRLPRPRPRPIDTPRP	-0.35
RRIRWRPPRLPRPRPRPHHQPRP	-0.316
RRIRDRPPRLPRPRPRPQYMPRP	0.0516
RRIRQRPPRLPRPRPRPVSCPRP	0.0853
RRIRCRPPRLPRPRPRPPGSPRP	0.379
RRIRQRPPRLPRPRPRPLGIPRP	-0.381
RRIRARPPRLPRPRPRPSLWPRP	0.974
RRIRPRPPRLPRPRPRPRAWPRP	0.0147
RRIRCRPPRLPRPRPRPPKEPRP	0.203
RRIRLRPPRLPRPRPRPRLIPRP	0.123
RRIRARPPRLPRPRPRPNFGPRP	0.324
RRIRSRPPRLPRPRPRPACWPRP	0.523
RRIRWRPPRLPRPRPRPLMMPRP	0.0198
RRIRYRPPRLPRPRPRPQSEPRP	-0.37
RRIRWRPPRLPRPRPRPMWAPRP	0.385
RRIRKRPPRLPRPRPRPSAQPRP	1.84
RRIRCRPPRLPRPRPRPPLMPRP	0.121
RRIRTRPPRLPRPRPRPSDIPRP	-0.0989
RRIRKRPPRLPRPRPRPWCYPRP	-0.168
RRIRDRPPRLPRPRPRPVVIPRP	2.82
RRIRARPPRLPRPRPRPWNAPRP	-0.124
RRIRIRPPRLPRPRPRPVGYPRP	0.0961
RRIRIRPPRLPRPRPRPHNAPRP	-0.549
RRIRHRPPRLPRPRPRPHTTPRP	-0.491

Sequence	shrunken log2 fold change
RRIRYRPPRLPRPRPRPCILPRP	0.00867
RRIRYRPPRLPRPRPRPVMKPRP	-0.131
RRIRSRPPRLPRPRPRPLPKPRP	0.493
RRIRSRPPRLPRPRPRPDIWPRP	0.00423
RRIRQRPPRLPRPRPRPMGDPRP	0.0563
RRIRQRPPRLPRPRPRPPGPPRP	0.255
RRIRSRPPRLPRPRPRPTRDPRP	0.701
RRIRNRPPRLPRPRPRPAWYPRP	-0.178
RRIRHRPPRLPRPRPRPHEDPRP	0.0316
RRIRDRPPRLPRPRPRPILWPRP	0.00705
RRIRHRPPRLPRPRPRPQIWPRP	-0.327
RRIRQRPPRLPRPRPRPVFMPRP	-0.155
RRIRTRPPRLPRPRPRPKMFPRP	-0.0043
RRIRLRPPRLPRPRPRPDDCPRP	0.014
RRIRWRPPRLPRPRPRPANAPRP	0.711
RRIRQRPPRLPRPRPRPKMYPRP	-0.544
RRIRYRPPRLPRPRPRPYYMPRP	-1.06
RRIRVRPPRLPRPRPRPKAPPRP	0.592
RRIRDRPPRLPRPRPRPAKKPRP	-0.00565
RRIRRRPPRLPRPRPRPDGCPRP	0.165
RRIRLRPPRLPRPRPRPAHIPRP	0.0196
RRIRDRPPRLPRPRPRPLKAPRP	-0.214
RRIRRRPPRLPRPRPRPMGRPRP	0.464
RRIRPRPPRLPRPRPRPFVFPRP	-0.2
RRIRQRPPRLPRPRPRPREEPRP	-0.00407
